In US20230272064A1 one finds OD data, which are given here for 1 substance.

Test [1] has as its target recombinant human TIGIT extracellular membrane protein with a C-terminal histidine tag (human) (UniProt Q495A1). Kind of test: competitive ELISA, TIGIT-His coated, competitor fixed biotin-CD155-Fc (signal), mAb at 1.25 µg/mL.
Test [2] has the same target. Kind of test: competitive ELISA, TIGIT-His coated, competitor fixed biotin-CD155-Fc (signal), mAb at 0.078 µg/mL. A general note: In an ELISA, binding on a coated surface is turned into a signal by an enzyme label.
For test [3] the target is unchanged. Kind of test: competitive ELISA, TIGIT-His coated, competitor fixed biotin-CD155-Fc (signal), mAb at 0.312 µg/mL.
Test [4] has the same target. Kind of test: competitive ELISA, TIGIT-His coated, competitor fixed biotin-CD155-Fc (signal), mAb at 2.5 µg/mL.
Test [5] has the same target. Description: competitive ELISA, TIGIT-His coated, competitor fixed biotin-CD155-Fc (signal), mAb at 0.156 µg/mL.
The target is the same in test [6]. Kind of test: competitive ELISA, TIGIT-His coated, competitor fixed biotin-CD155-Fc (signal), mAb at 10 µg/mL.
Test [7] has the same target. Description: competitive ELISA, TIGIT-His coated, competitor fixed biotin-CD155-Fc (signal), mAb at 0.039 µg/mL.
Test [8] has the same target. Description: competitive ELISA, TIGIT-His coated, competitor fixed biotin-CD155-Fc (signal), mAb at 0.625 µg/mL.
For test [9] the target is unchanged. Kind of test: competitive ELISA, TIGIT-His coated, competitor fixed biotin-CD155-Fc (signal), mAb at 0.005 µg/mL.
The target is the same in test [10]. Kind of test: competitive ELISA, TIGIT-His coated, competitor fixed biotin-CD155-Fc (signal), mAb at 0.010 µg/mL.
Test [11] has the same target. Description: competitive ELISA, TIGIT-His coated, competitor fixed biotin-CD155-Fc (signal), mAb at 0.019 µg/mL.
Test [12] shares this target. Description: competitive ELISA, TIGIT-His coated, competitor fixed biotin-CD155-Fc (signal), mAb at 5 µg/mL.

Sequence of recombinant human TIGIT extracellular membrane protein with a C-terminal histidine tag (human) (Q495A1 22-141): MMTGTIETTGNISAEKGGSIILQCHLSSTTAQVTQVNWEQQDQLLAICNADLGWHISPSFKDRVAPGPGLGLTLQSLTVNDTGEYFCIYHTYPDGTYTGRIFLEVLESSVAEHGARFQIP

Turning to anti-VEGF monoclonal antibody hPV19, the OD at 492 nm in test [1] is 1.08 OD; in test [2], 1.05 OD; in test [3] it was 1.03 OD; in test [4] it was 1.07 OD; in [5], 1.05 OD; in test [6] it was 1.11 OD. The OD at 492 nm turned out to be 1.05 OD in test [7]; 1.06 OD in test [8]; 1.11 OD in [9]; 1.1 OD in test [10]; 1.08 OD in [11]; 1.1 OD in test [12].
